# In patent US20130095097A1 (EMERGENT PRODUCT DEVELOPMENT SEATTLE, published 2013):
# Experiments:
# CD28 on Jurkat T cells = target: T1, CD28 on Jurkat T cells (UniProt P10747 19-220, limits assumed); experiment: flow cytometry on Jurkat cells
# T1 construct: whole, on cells; also called Jurkat cells; Jurkat T cell lines
# CD28 mIg [1] = target: T2, CD28 mIg (UniProt P10747 19-152); experiment: SPR, CD28-mIgG immobilized, bivalent analyte model, first on rate ka (I)
# T2 construct: Coated on ELISA plates and amine-coupled to a CM5 chip; also called CD28-mIgG; immobilized CD28
# Experimental: (§1) Surface plasmon resonance (SPR) measurements were performed on a Biacore T100 SPR using HBS-P+ (GE Healthcare) as a running buffer. CD28-mIgG (25 μg/mL in 10 mM sodium acetate, pH 4.0) was directly immobilized onto a CM5 chip using standard amine coupling chemistry (Biacore Amine Coupling Kit, GE Healthcare), with final immobilization levels between 800 and 1900 Ru (resonance units). 2E12 binding domain constructs were injected at 25° C. or 37° C. for 150 seconds at a flow rate of 30 μl/min in a series of concentrations from 10 nM to 1 μM. Dissociation was monitored for 1200 seconds, and the surface was regenerated by injecting 50 mM NaOH for 60 seconds. Binding interactions with the surface were stable through at least 60 regeneration cycles. Data were analyzed using BiaEvaluation for the T100 software (version 2.0, GE Healthcare).
# (§2) Surface plasmon resonance was used to measure binding of immobilized CD28 by 2E12 binding domain constructs. […] Binding kinetics of the bivalent 2E12 constructs (e.g., 2E12 mAb, FIGS. 27A-27B) to immobilized CD28 could not be fit to a 1:1 Langmuir binding model, but could be fit with high accuracy to a bivalent analyte binding model (Table 5). Equilibrium dissociation constants (1(D) could be calculated with high accuracy for each construct by fitting the observed response at saturation to a steady-state equilibrium model (Table 5).
# CD28 mIg [2] = target: T2, CD28 mIg; experiment: SPR, CD28-mIgG immobilized, kinetic KD, bivalent analyte model, initial binding at the first site only
# Experimental: as §1, §2
# CD28 mIg [3] = target: T2, CD28 mIg; experiment: SPR, CD28-mIgG immobilized, bivalent analyte model, second off rate (avidity)
# Experimental: as §1, §2
# CD28 mIg [4] = target: T2, CD28 mIg; experiment: SPR, CD28-mIgG immobilized; reference 2E12 SMIP (M0039)
# Experimental: as §1, §2
# CD28 mIg [5] = target: T2, CD28 mIg; experiment: SPR, CD28-mIgG immobilized, bivalent analyte model, first off rate kd (I)
# Experimental: as §1, §2
# CD28 mIg [6] = target: T2, CD28 mIg; experiment: SPR, CD28-mIgG immobilized, steady-state equilibrium KD
# Experimental: as §1, §2
# CD28 mIg [7] = target: T2, CD28 mIg; experiment: SPR, CD28-mIgG immobilized, bivalent analyte model, second on rate (avidity); design: unit not given here
# Experimental: as §1, §2
# CD28 mIg [8] = target: T3, CD28 mIg (UniProt P10747 19-152); experiment: SPR, CD28-mIgG immobilized, kinetic KD (kd (I)/ka (I))
# Experimental: as §1, §2
# CD28 mIg [9] = target: T3, CD28 mIg; experiment: SPR, CD28-mIgG immobilized, 1:1 Langmuir model, kd (I)
# Experimental: as §1, §2
# CD28 mIg [10] = target: T3, CD28 mIg; experiment: SPR, CD28-mIgG immobilized, 1:1 Langmuir model, ka (I)
# Experimental: as §1, §2
# CD28 mIg [11] = target: T3, CD28 mIg; experiment: SPR, CD28-mIgG immobilized, steady-state equilibrium KD
# Experimental: as §1, §2
Binder,binding result (CD28 on Jurkat T cells),kon (CD28 mIg [1]),Kd (CD28 mIg [2]),kd (II) (CD28 mIg [3]),fold affinity difference against the 2E12 SMIP (CD28 mIg [4]),koff (CD28 mIg [5]),Kd (CD28 mIg [6]),ka (II) (CD28 mIg [7]),Kd (CD28 mIg [8]),koff (CD28 mIg [9]),kon (CD28 mIg [10]),Kd (CD28 mIg [11])
"2E12 monoclonal antibody (mAb) (antibody, V domains shown, also called 2E12 mAb; 2E12 Mab) VH: QVQLKESGPGSVAPSQSLSITCTVSGFSLTGYGVNWVRQPPGKGLEWLGMIWGDGSTDYNSALKSRLSITKDNSKSQVFLKMNSLQTDDTARYYCARDGYSNFHYYVMDYWGQGTSVTVSS VL: DIVLTQSPASLAVSLGQRATISCRASESVEYYVTSLMQWYQQKPGQPPKLLISAASNVESGVPARFSGSGSGTDFSLNIHPVEEDDIAMYFCQQSRKVPWTFGGGTKLEIK",–,176000 M⁻¹ s⁻¹,6 nM,0.0127 s⁻¹,2 fold,0.00104 s⁻¹,11.4 nM,0.00367,–,–,–,–
"Interceptor X0132 (X0130 + X0131) (other, also called Heterodimer 2 (X0132)) chain 1: QVQLKESGPGSVAPSQSLSITCTVSGFSLTGYGVNWVRQPPGKGLEWLGMIWGDGSTDYNSALKSRLSITKDNSKSQVFLKMNSLQTDDTARYYCARDGYSNFHYYVMDYWGQGTSVTVSSGGGGSGGGGSGGGGSGGGGSDIVLTQSPASLAVSLGQRATISCRASESVEYYVTSLMQWYQQKPGQPPKLLISAASNVESGVPARFSGSGSGTDFSLNIHPVEEDDIAMYFCQQSRKVPWTFGGGTKLEIKSSSASTKGPSVFPLAPSSKSTSGGTAALGCLVKDYFPEPVTVSWNSGALTSGVHTFPAVLQSSGLYSLSSVVTVPSSSLGTQTYICNVNHKPSNTKVDKKVRTEPKSSDKTHTCPPCPSGAPELLGGPSVFLFPPKPKDTLMISRTPEVTCVVVDVSHEDPEVKFNWYVDGVEVHNAKTKPREEQYNSTYRVVSVLTVLHQDWLNGKEYKCKVSNKALPAPIEKTISKAKGQPREPQVYTLPPSRDELTKNQVSLTCLVKGFYPSDIAVEWESNGQPENNYKTTPPVLDSDGSFFLYSKLTVDKSRWQQGNVFSCSVMHEALHNHYTQKSLSLSPGKSRTVAAPSVFIFPPSDEQLKSGTASVVCLLNNFYPREAKVQWKVDNALQSGNSQESVTEQDSKDSTYSLSSTLTLSKADYEKHKVYACEVTHQGLSSPVTKSFNRGE chain 2: TVAAPSVFIFPPSDEQLKSGTASVVCLLNNFYPREAKVQWKVDNALQSGNSQESVTEQDSKDSTYSLSSTLTLSKADYEKHKVYACEVTHQGLSSPVTKSFNRGERTEPKSSDKTHTCPPCPSGAPELLGGPSVFLFPPKPKDTLMISRTPEVTCVVVDVSHEDPEVKFNWYVDGVEVHNAKTKPREEQYNSTYRVVSVLTVLHQDWLNGKEYKCKVSNKALPAPIEKTISKAKGQPREPQVYTLPPSRDELTKNQVSLTCLVKGFYPSDIAVEWESNGQPENNYKTTPPVLDSDGSFFLYSKLTVDKSRWQQGNVFSCSVMHEALHNHYTQKSLSLSPGKSRASTKGPSVFPLAPSSKSTSGGTAALGCLVKDYFPEPVTVSWNSGALTSGVHTFPAVLQSSGLYSLSSVVTVPSSSLGTQTYICNVNHKPSNTKVDKKV",binds,–,–,–,–,–,–,–,43.7 nM,0.0065 s⁻¹,149000 M⁻¹ s⁻¹,134 nM
"2E12 single-chain variable fragment (scFv) (scFv, Any tag on the free scFv used in SPR is not described; also called 2E12 scFv) scFv: QVQLKESGPGSVAPSQSLSITCTVSGFSLTGYGVNWVRQPPGKGLEWLGMIWGDGSTDYNSALKSRLSITKDNSKSQVFLKMNSLQTDDTARYYCARDGYSNFHYYVMDYWGQGTSVTVSSGGGGSGGGGSGGGGSGGGGSDIVLTQSPASLAVSLGQRATISCRASESVEYYVTSLMQWYQQKPGQPPKLLISAASNVESGVPARFSGSGSGTDFSLNIHPVEEDDIAMYFCQQSRKVPWTFGGGTKLEIK",–,–,–,–,–,–,–,–,9.69 nM,0.00338 s⁻¹,348000 M⁻¹ s⁻¹,39.6 nM

# Other lines, results leading:
binding result (CD28 on Jurkat T cells),kon (CD28 mIg [1]),Kd (CD28 mIg [2]),kd (II) (CD28 mIg [3]),fold affinity difference against the 2E12 SMIP (CD28 mIg [4]),koff (CD28 mIg [5]),Kd (CD28 mIg [6]),ka (II) (CD28 mIg [7]),Kd (CD28 mIg [8]),koff (CD28 mIg [9]),kon (CD28 mIg [10]),Kd (CD28 mIg [11]),Binder
binds,–,–,–,–,–,–,–,–,–,–,–,Interceptor X0128 (X0120 + X0121) (other) chain 1: QVQLKESGPGSVAPSQSLSITCTVSGFSLTGYGVNWVRQPPGKGLEWLGMIWGDGSTDYNSALKSRLSITKDNSKSQVFLKMNSLQTDDTARYYCARDGYSNFHYYVMDYWGQGTSVTVSSGGGGSGGGGSGGGGSGGGGSDIVLTQSPASLAVSLGQRATISCRASESVEYYVTSLMQWYQQKPGQPPKLLISAASNVESGVPARFSGSGSGTDFSLNIHPVEEDDIAMYFCQQSRKVPWTFGGGTKLEIKSSSASTKGPSVFPLAPSSKSTSGGTAALGCLVKDYFPEPVTVSWNSGALTSGVHTFPAVLQSSGLYSLSSVVTVPSSSLGTQTYICNVNHKPSNTKVDKKVRTEPKSSDKTHTCPPCPSGAPELLGGPSVFLFPPKPKDTLMISRTPEVTCVVVDVSHEDPEVKFNWYVDGVEVHNAKTKPREEQYNSTYRVVSVLTVLHQDWLNGKEYKCKVSNKALPAPIEKTISKAKGQPREPQVYTLPPSRDELTKNQVSLTCLVKGFYPSDIAVEWESNGQPENNYKTTPPVLDSDGSFFLYSKLTVDKSRWQQGNVFSCSVMHEALHNHYTQKSLSLSPGKSRASTKGPSVFPLAPSSKSTSGGTAALGCLVKDYFPEPVTVSWNSGALTSGVHTFPAVLQSSGLYSLSSVVTVPSSSLGTQTYICNVNHKPSNTKVDKKV chain 2: TVAAPSVFIFPPSDEQLKSGTASVVCLLNNFYPREAKVQWKVDNALQSGNSQESVTEQDSKDSTYSLSSTLTLSKADYEKHKVYACEVTHQGLSSPVTKSFNRGERTEPKSSDKTHTCPPCPSGAPELLGGPSVFLFPPKPKDTLMISRTPEVTCVVVDVSHEDPEVKFNWYVDGVEVHNAKTKPREEQYNSTYRVVSVLTVLHQDWLNGKEYKCKVSNKALPAPIEKTISKAKGQPREPQVYTLPPSRDELTKNQVSLTCLVKGFYPSDIAVEWESNGQPENNYKTTPPVLDSDGSFFLYSKLTVDKSRWQQGNVFSCSVMHEALHNHYTQKSLSLSPGKSRTVAAPSVFIFPPSDEQLKSGTASVVCLLNNFYPREAKVQWKVDNALQSGNSQESVTEQDSKDSTYSLSSTLTLSKADYEKHKVYACEVTHQGLSSPVTKSFNRGE
–,–,–,–,–,–,–,–,35.2 nM,0.00497 s⁻¹,141000 M⁻¹ s⁻¹,104 nM,"Interceptor X0124 (X0112 + X0113) (other, Monovalent anti-CD28 polypeptide heterodimer; After protein A alone the preparation also holds X0113 homodimer; also called Heterodimer 1 (X0124); X00124) chain 1: QVQLKESGPGSVAPSQSLSITCTVSGFSLTGYGVNWVRQPPGKGLEWLGMIWGDGSTDYNSALKSRLSITKDNSKSQVFLKMNSLQTDDTARYYCARDGYSNFHYYVMDYWGQGTSVTVSSGGGGSGGGGSGGGGSGGGGSDIVLTQSPASLAVSLGQRATISCRASESVEYYVTSLMQWYQQKPGQPPKLLISAASNVESGVPARFSGSGSGTDFSLNIHPVEEDDIAMYFCQQSRKVPWTFGGGTKLEIKSSSASTKGPSVFPLAPSSKSTSGGTAALGCLVKDYFPEPVTVSWNSGALTSGVHTFPAVLQSSGLYSLSSVVTVPSSSLGTQTYICNVNHKPSNTKVDKKVRTEPKSSDKTHTCPPCPSGAPELLGGPSVFLFPPKPKDTLMISRTPEVTCVVVDVSHEDPEVKFNWYVDGVEVHNAKTKPREEQYNSTYRVVSVLTVLHQDWLNGKEYKCKVSNKALPAPIEKTISKAKGQPREPQVYTLPPSRDELTKNQVSLTCLVKGFYPSDIAVEWESNGQPENNYKTTPPVLDSDGSFFLYSKLTVDKSRWQQGNVFSCSVMHEALHNHYTQKSLSLSPGK chain 2: TVAAPSVFIFPPSDEQLKSGTASVVCLLNNFYPREAKVQWKVDNALQSGNSQESVTEQDSKDSTYSLSSTLTLSKADYEKHKVYACEVTHQGLSSPVTKSFNRGERTEPKSSDKTHTCPPCPSGAPELLGGPSVFLFPPKPKDTLMISRTPEVTCVVVDVSHEDPEVKFNWYVDGVEVHNAKTKPREEQYNSTYRVVSVLTVLHQDWLNGKEYKCKVSNKALPAPIEKTISKAKGQPREPQVYTLPPSRDELTKNQVSLTCLVKGFYPSDIAVEWESNGQPENNYKTTPPVLDSDGSFFLYSKLTVDKSRWQQGNVFSCSVMHEALHNHYTQKSLSLSPGK"
